Results: patent US20030152959, “Method of using estrogen-related receptor alpha (ERRalpha) status to determine prognosis, treatment strategy and predisposition to breast cancer, and method of using ERRalpha as a therapeutic target for the treatment of breast cancer” (published 2003)

T1: ERRα1 (estrogen-related receptor alpha 1, NR3B1) (Homo sapiens, UniProt P11474 P11474:1-423)
T1 sequence: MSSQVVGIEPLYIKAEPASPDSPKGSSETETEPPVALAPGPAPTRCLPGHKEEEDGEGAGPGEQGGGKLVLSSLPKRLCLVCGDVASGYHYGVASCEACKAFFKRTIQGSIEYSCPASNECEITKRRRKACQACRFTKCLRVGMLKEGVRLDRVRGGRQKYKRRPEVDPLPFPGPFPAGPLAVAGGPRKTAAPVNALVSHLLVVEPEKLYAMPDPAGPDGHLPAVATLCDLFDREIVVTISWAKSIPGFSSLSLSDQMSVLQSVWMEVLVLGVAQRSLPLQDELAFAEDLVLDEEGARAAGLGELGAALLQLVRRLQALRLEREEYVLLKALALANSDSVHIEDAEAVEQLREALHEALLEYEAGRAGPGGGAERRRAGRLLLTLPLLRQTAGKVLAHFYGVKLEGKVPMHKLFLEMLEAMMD

B1: Consensus palindromic ERE (dsDNA)
DNA 1: TAAGCTTAGGTCACAGTGACCTAAGCTTA
DNA 2: TAAGCTTAGGTCACTGTGACCTAAGCTTA
B2: EGF site (dsDNA)
DNA 1: CAAATAATGGGCTGAAGGTGAACTATCTTTACT
DNA 2: AGTAAAGATAGTTCACCTTCAGCCCATTATTTG
B3: ErbB2 ERRE (dsDNA)
DNA 1: AAAGGAACTTTCCCAAGGTCACAGAGCTGAGCT
DNA 2: AGCTCAGCTCTGTGACCTTGGGAAAGTTCCTTT
B4: PgR site 1 (dsDNA)
DNA 1: AAAATTGTTTTGTCTAGGTCATTTGCATTTTCA
DNA 2: TGAAAATGCAAATGACCTAGACAAAACAATTTT
B5: hMDM2 site (dsDNA)
DNA 1: GGGAGTTCAGGGTAAAGGTCACGGGGCCGGGGC
DNA 2: GCCCCGGCCCCGTGACCTTTACCCTGAACTCCC
B6: ERβ promoter site (dsDNA)
DNA 1: GGTGCTCCCACTTAGAGGTCACGCGCGGCGTCG
DNA 2: CGACGCCGCGCGTGACCTCTAAGTGGGAGCACC
B7: elk1 site (dsDNA)
DNA 1: CTCCCATCTCACTTAAGGTCAAAGCCAGGGTCC
DNA 2: GGACCCTGGCTTTGACCTTAAGTGAGATGGGAG
B8: IGF2 site 3 (dsDNA)
DNA 1: GGTGGACGCTGCTGAAGGTGAGCGAGACCCCGG
DNA 2: CCGGGGTCTCGCTCACCTTCAGCAGCGTCCACC
B9: IGF2 site 2 (dsDNA)
DNA 1: CTGTCGGCAGGAACAAGGTCACCCCTTGGCGTT
DNA 2: AACGCCAAGGGGTGACCTTGTTCCTGCCGACAG
B10: pS2 site 2 (dsDNA)
DNA 1: GTAGGACCTGGATTAAGGTCAGGTTGGAGGAGA
DNA 2: TCTCCTCCAACCTGACCTTAATCCAGGTCCTAC
B11: ERα promoter site (dsDNA)
DNA 1: ATGTTTGGTATGAAAAGGTCACATTTTATATTC
DNA 2: GAATATAAAATGTGACCTTTTCATACCAAACAT
B12: Prolactin site 3 (dsDNA)
DNA 1: CCTCAGAGTGGCTCAGGGTCAGAGAAGGTAGAG
DNA 2: CTCTACCTTCTCTGACCCTGAGCCACTCTGAGG
B13: Prolactin site 2 (dsDNA)
DNA 1: CAAATTTGAAACTAAAGGTCACAGGCTGCTTTA
DNA 2: TAAAGCAGCCTGTGACCTTTAGTTTCAAATTTG
B14: PgR site 2 (dsDNA)
DNA 1: TCCTTGCTAAACCCAAGGTCATAAATCTTTTCT
DNA 2: AGAAAAGATTTATGACCTTGGGTTTAGCAAGGA
B15: aromatase site (dsDNA)
DNA 1: CCTGAGACTCTACCAAGGTCAGAAATGCTGCAA
DNA 2: TTGCAGCATTTCTGACCTTGGTAGAGTCTCAGG
B16: cyclin D1 site (dsDNA)
DNA 1: GCGAGGAAAGCGTGAAGGTGATTTCAGTTAATT
DNA 2: AATTAACTGAAATCACCTTCACGCTTTCCTCGC
B17: IGF1R site (dsDNA)
DNA 1: GCTCCGGCTCGCTGAAGGTCACAGCCGAGGCGA
DNA 2: TCGCCTCGGCTGTGACCTTCAGCGAGCCGGAGC
B18: pS2 site 1 (dsDNA)
DNA 1: TCCCTTCCCCCTGCAAGGTCACGGTGGCCACCC
DNA 2: GGGTGGCCACCGTGACCTTGCAGGGGGAAGGGA
B19: Cathepsin D site (dsDNA)
DNA 1: TGGCATATTGGGTGAAGGTCAAGGGAGTGGCTT
DNA 2: AAGCCACTCCCTTGACCTTCACCCAATATGCCA
B20: BRCA1 site (dsDNA)
DNA 1: GTAATTGCTGTACGAAGGTCAGAATCGCTACCT
DNA 2: AGGTAGCGATTCTGACCTTCGTACAGCAATTAC
B21: BRCA2 site (dsDNA)
DNA 1: AGAACATCCCTTTTAAGGTCAGAACAAAGGTAT
DNA 2: ATACCTTTGTTCTGACCTTAAAAGGGATGTTCT
B22: PgR site 3 (dsDNA)
DNA 1: TCCTAAGGACTGTCAAGGTCATCAAATACAAGG
DNA 2: CCTTGTATTTGATGACCTTGACAGTCCTTAGGA
B23: Prolactin site 1 (dsDNA)
DNA 1: TGTCCATTTTCTTCTAGGTCAACCCCAATGGTA
DNA 2: TACCATTGGGGTTGACCTAGAAGAAAATGGACA

Each binder was assayed against T1, ERRα1 (estrogen-related receptor alpha …) (assay: cell_activity; HeLa, 3xERE-TK-luc reporter). Details: tags:.
Procedure: Transient Transfections and Luciferase Assays: To assess the role ERRα plays in regulating transcription of an ERE-containing promoter, MCF-7 or HeLa cells grown in 12-well tissue culture plates were co-transfected in parallel with 0.5 μg of pTK-luc versus p3xERE-TK-luc along with the indicated amounts of the empty cloning vector pcDNA3.1, the ERRα1 expression plasmid pcDNA3.1-hERRα1, or mutant variants thereof. […] Cells were harvested 48 h post-transfection, and lysates were assayed for luciferase activity normalized to protein concentration as previously described (36).
To determine whether the transcriptional repression observed here was dependent upon the cell line, we repeated the cotransfection experiments as described above except using ER-negative HeLa cells in place of ER-positive MCF-7 cells (FIG. 19).
B1 was tested, and the activity was 2.5 fold activation.

The binders below were run against T1, ERRα1 (estrogen-related receptor alpha …) (assay: competition; competition EMSA, COS extract). Details: tags: COS / COS-M6 whole-cell extract, pcDNA3.1-hERRα1 or pRSV-hERRα1.
Binder B2 has a binding signal of 0.14 RBA vs reference ERRE. B3 was tested, and the binding signal was 1.01 RBA vs reference ERRE. In the case of B4, the binding signal is reported as 0.14 RBA vs reference ERRE. Binder B5 has a binding signal of 0.35 RBA vs reference ERRE. Binder B6 has a binding signal of 0.54 RBA vs reference ERRE. Work on B7 yielded a binding signal of 0.22 RBA vs reference ERRE. In the case of B8, the binding signal is reported as 0.06 RBA vs reference ERRE. In the case of B9, the binding signal is reported as 0.25 RBA vs reference ERRE. B10 was tested, and the binding signal was 0.12 RBA vs reference ERRE. With B11 the binding signal was 0.11 RBA vs reference ERRE. In the case of B12, the binding signal is reported as 0.07 RBA vs reference ERRE. B13 was tested, and the binding signal was 0.33 RBA vs reference ERRE. Binder B14 has a binding signal of 0.91 RBA vs reference ERRE. B15 gave a binding signal of 0.17 RBA vs reference ERRE. B16 was tested, and the binding signal was 0.07 RBA vs reference ERRE. In the case of B17, the binding signal is reported as 0.36 RBA vs reference ERRE. Work on B18 yielded a binding signal of 0.49 RBA vs reference ERRE. In the case of B19, the binding signal is reported as 0.49 RBA vs reference ERRE. Work on B20 yielded a binding signal of 0.17 RBA vs reference ERRE. B21 gave a binding signal of 0.08 RBA vs reference ERRE. With B22 the binding signal was 1.45 RBA vs reference ERRE. B23 showed a binding signal of 0.06 RBA vs reference ERRE.
